In the assay the target is HOIP UBA-RBR-LDD/HOIL-1L UBL complex (human) (UniProt Q96EP0). Description: ITC. A general note: ITC needs no label: the signal is the heat of the interaction.

pKd: −log10 of the molar value.

Usually pKd stands for the negative decadic logarithm of the Kd, by convention in mol/L. Low readings indicate a large Kd, high ones a small Kd.

HOIP UBA-RBR-LDD/HOIL-1L UBL complex (human), sequence (Q96EP0 whole entry, chain 1 of 2): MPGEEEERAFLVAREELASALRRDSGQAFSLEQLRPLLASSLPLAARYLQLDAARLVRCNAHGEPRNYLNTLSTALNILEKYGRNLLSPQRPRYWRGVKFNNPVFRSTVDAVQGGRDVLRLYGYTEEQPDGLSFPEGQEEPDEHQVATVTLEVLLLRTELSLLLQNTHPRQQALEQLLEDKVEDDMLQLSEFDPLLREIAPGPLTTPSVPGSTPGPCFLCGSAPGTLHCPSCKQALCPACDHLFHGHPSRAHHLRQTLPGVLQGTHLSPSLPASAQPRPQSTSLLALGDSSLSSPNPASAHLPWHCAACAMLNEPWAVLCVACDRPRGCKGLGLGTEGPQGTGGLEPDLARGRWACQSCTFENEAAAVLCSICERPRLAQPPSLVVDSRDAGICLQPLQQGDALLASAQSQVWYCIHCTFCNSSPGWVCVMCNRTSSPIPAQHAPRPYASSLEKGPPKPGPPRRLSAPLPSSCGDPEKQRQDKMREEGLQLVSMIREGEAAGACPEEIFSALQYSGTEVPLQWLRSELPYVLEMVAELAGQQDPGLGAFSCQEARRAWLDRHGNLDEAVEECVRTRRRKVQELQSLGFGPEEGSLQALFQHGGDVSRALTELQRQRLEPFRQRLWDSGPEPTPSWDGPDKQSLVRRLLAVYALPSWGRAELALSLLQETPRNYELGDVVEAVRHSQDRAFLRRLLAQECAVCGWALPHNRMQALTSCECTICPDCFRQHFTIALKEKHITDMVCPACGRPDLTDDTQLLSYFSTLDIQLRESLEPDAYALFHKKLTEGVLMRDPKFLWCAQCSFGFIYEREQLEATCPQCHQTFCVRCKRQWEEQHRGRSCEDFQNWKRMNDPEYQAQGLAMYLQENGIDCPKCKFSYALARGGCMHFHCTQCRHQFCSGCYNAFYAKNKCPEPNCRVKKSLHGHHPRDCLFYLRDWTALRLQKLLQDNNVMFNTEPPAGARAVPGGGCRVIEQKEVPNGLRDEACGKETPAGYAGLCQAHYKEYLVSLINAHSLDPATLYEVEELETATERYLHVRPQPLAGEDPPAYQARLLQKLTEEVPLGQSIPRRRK
HOIP UBA-RBR-LDD/HOIL-1L UBL complex (human), sequence (Q9BYM8 53-135, chain 2 of 2, further chain): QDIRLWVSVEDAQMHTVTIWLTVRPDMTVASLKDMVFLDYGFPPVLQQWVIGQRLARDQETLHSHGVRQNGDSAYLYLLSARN

“IpaH1.4 LRR domain (from UniProt A0A0H2USG1 38-283) (domain or fragment)” showed a pKd of 5.64.

(Values after article PMC8944867.)
